Experimental data published in doi:10.1101/2025.08.18.670856.

Tests used:
[1] = target: FetA-HIS (wild type, from the plasmid AHSG-bio-His) (human) (UniProt P02765); test: SPR
[2] = target: HIF-1α wild type used in SPR: C-terminal domain (CTD) of hypoxia-stable HIF-1α (579-826 residues) (human) (UniProt Q16665); test: SPR

Kd [1]	Kd [2]	Molecule
90 nM		HIF-1α 743D>L point mutant (from UniProt Q16665 1-826) (natural protein)
	23.4 nM	FetA-HIS (wild type, from the plasmid AHSG-bio-His) (natural protein) APHGPGLIYRQPNCDDPETEEAALVAIDYINQNLPWGYKHTLNQIDEVKVWPQQPSGELFEIEIDTLETTCHVLDPTPVARCSVRQLKEHAVEGDCDFQLLKLDGKFSVVYAKCDSSPDSAEDVRKVCQDCPLLAPLNDTRVVHAAKAALAAFNAQNNGSNFQLEEISRAQLVPLPPSTYVEFTVSGTDCVAKEATEAAKCNLLAEKQYGFCKATLSEKLGGAEVAVTCMVFQTQPVSSQPQPEGANEAVPTPVVDPDAPPSPPLGAPGLPPAGSPPDSHVLLAAPPGHQLHRAHYDLRHTFMGVVSLGSPSGEVSHPRKTRTVVQPSVGAAAGPVVPPCPGRIRHFKV
